Data set [1] concerns the target T1, Rhodobacter sphaeroides RsTAL (Protein GI 126464011), His-tagged (N-terminal tag SEQ ID NO: 11) (Cereibacter sphaeroides, UniProt Q3IWB0).
T1 sequence (Q3IWB0 1-523): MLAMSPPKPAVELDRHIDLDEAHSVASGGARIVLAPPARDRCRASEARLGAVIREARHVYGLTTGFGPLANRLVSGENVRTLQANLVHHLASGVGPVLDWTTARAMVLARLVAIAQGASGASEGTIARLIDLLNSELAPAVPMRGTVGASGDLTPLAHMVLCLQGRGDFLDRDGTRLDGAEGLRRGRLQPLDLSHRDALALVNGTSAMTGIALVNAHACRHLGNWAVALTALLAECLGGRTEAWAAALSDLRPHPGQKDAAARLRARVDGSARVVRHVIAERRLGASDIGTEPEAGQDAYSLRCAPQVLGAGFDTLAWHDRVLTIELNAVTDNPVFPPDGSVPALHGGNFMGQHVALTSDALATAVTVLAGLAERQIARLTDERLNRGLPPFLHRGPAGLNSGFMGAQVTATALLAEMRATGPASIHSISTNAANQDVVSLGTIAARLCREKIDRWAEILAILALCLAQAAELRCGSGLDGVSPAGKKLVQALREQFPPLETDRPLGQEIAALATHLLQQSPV
As to the kind of experiment: In vitro kinetics of purified His-tagged RsTAL (tyrosine/phenylalanine ammonia lyase activity, absorbance at 315/295 nm).
Experimental: Four of the enzymes were further purified by His-tag purification as follows.
Strains expressing His-tagged versions of the enzymes were grown in LB media overnight at 37° C. and diluted into fresh LB media with 1 mM IPTG and growth was propagated overnight (approximately 18 h) at 30° C. Cells were harvested by centrifugation at 8000 rpm for 8 minutes, and disrupted by shearing into a buffer (50 mM Tris-HCl, 10 mM imidazole, 500 mM NaCl, 10% glycerol, pH 7.5). The homogenate was clarified by centrifugation at 10000 g for 10 min at 4° C., and the supernatant was loaded onto Ni2+-NTA resin column on an Äkta Pure system connected to a F9-C fraction collector (GE). Finally the fractions containing the purified polypeptide was dialyzed overnight against a buffer containing 50 mM Tris-HCl pH 7.5, 150 mM NaCl and 10% glycerol, flash-frozen in liquid nitrogen and stored at −80° C.
Enzymatic assays were performed in 200 μL volumes in wells in a UV transparent 96-well plate, by following the increase in absorbance at 315 nm (pHCA) or 295 nm (CA). The reaction mixtures contained 2 μg of purified protein and were initiated by adding 1 mM tyrosine or 6 mM after equilibration to 30° C. The enzymatic activity was calculated as U/g, where U is defined as μmol substrate converted per minute.

The test system of data set [2] is Saccharomyces cerevisiae CEN.PK102-5B. As to the kind of experiment: Specific production of pHCA and CA by S. cerevisiae expressing TAL enzymes. The class given is cell-based. The note with it: 72 h, 30° C., +/- standard deviation. The text has this:
A number of the previously characterized enzymes were characterized when expressed in Saccharomyces cerevisiae. Genes encoding HaXAL1 and FjXAL were synthesized with codon optimization for S. cerevisiae available by GeneArt (Life Technologies), and were named HaXAL1 Sc and FjXALSc. Genes were amplified using the oligonucleotide (refer to specific name) shown in Table 6, and inserted by uracil-excision into the vector pCfB132 together with the PPGK1 promoter amplified by primers PPGK1_fw and PPGK1_rv (Jensen et al., 2014). The finished plasmids were transformed into Saccharomyces cerevisiae CEN.PK102-5B (MAT a ura3-52 his3Δ1 leu2-3/112 MAL2-8c SUC2) using a standard lithium acetate transformation protocol and selected for on synthetic drop-out media plates lacking uracil.
Cells were grown in SC medium without uracil, and diluted into Delft medium or Feed-In-Time (FIT) medium (m2p-labs) supplemented with leucine and histidine. After 72 h of incubation at 30° C. with shaking, samples were taken for the analysis of optical density at 600 nm and for clarification of the supernatant, which was analyzed by HPLC as described in example 1. The specific production was calculated as micromolar (μM) concentration per unit of optical density of the culture at 600 nm and is shown in Table 4.

Data set [3] deals with L. lactis NZ9000ΔldhΔldhB. As to the kind of experiment: Specific pHCA and CA productivity of L. lactis strains expressing TAL/PAL enzymes in CDM. The data set is classed as cell-based, Lactococcus lactis. An excerpt: The synthetic RsXALI (protein GI 129592) and RmXALI (protein GI 126464011) genes, codon optimized for Lactococcus lactis (GeneArt), were cloned into the nisin inducible expression vector pNZ8048 (Kuipers et al., 1998) as follows: RsXALI (SEQ ID NO: 56) and RmXALI (SEQ ID NO: 57) genes and the vector were PCR amplified using the primers listed in Table 7, and were assembled in a single-tube isothermal reaction using the Gibson Assembly Master Mix (New England Biolabs). Reaction products were ethanol-precipitated and suspended in double distilled water before transformation into L. lactis by electroporation as described by Holo and Nes (1995). The synthetic genes encoding SeSam8, R_XAL, HaXAL1 and FjXAL described in a previous example above were amplified by PCR using the primer pairs listed in Table 1, digested with specific restriction enzymes, and cloned in-between the NcoI and XbaI restriction sites of pNZ8048. The plasmids were obtained and maintained in L. lactis NZ9000 (Kuipers et al., 1998) and the gene sequences of the different constructs were verified by sequencing.
To assess pHCA production, TAL-expression vectors were transformed into a strain derived from NZ9000, but with deletion of the genes Idh and dhB (NZ9000ΔldhΔldhB). A control strain was also constructed by transformation of NZ9000ΔldhΔldhB with empty expression vector pNZ8048.
For molecular biology procedures, L. lactis strains were cultivated as batch cultures (flasks) without aeration in M17 medium (Difco™, USA) supplemented with 0.5% glucose (w/v) at 30° C. To assess pHCA production, strains were grown as static cultures in chemically defined medium (CDM; Poolman and Konings, 1988) containing 1% glucose (wt/vol) without pH control (initial pH 6.5 or 7.0) and supplemented with 1.7 or 3.7 mM L-tyrosine. Plasmid selection was achieved by addition of 5 μg mL^−1 chloramphenicol to the growth medium. Growth was monitored by measuring OD600. For heterologous expression of cloned tyrosine ammonia lyases, L. lactis strains were grown in CDM and nisin (1.5 μg L^−1) was added at an OD600 of 0.3-0.4. Samples (1 mL) of cultures were collected at different points during growth; centrifuged (16,100×g, 10 min, 4° C.) and the supernatants stored at −20° C. until analysis by HPLC as described in a previous example above. […] The first six columns are results from media containing 1.7 mM tyrosine. The seventh and ninth columns represent samples from strains grown in media containing 3.7 mM tyrosine, and the eighth and ninth columns are data from media with 68.5 mM 3-(N-morpholino)propanesulfonic acid (MOPS) and initial pH adjusted to 7.0 rather than 6.5.

The values below come from patent US11306331B2, “Processes for the production of hydroxycinnamic acids using polypeptides having tyrosine ammonia lyase activity” (CysBio ApS, priority 2014, dated 2022).

With `N[C@@H](Cc1ccc(O)cc1)C(=O)O` [Tyr, tyrosine], the Kcat in data set [1] (30° C, 1.56 μM to 200 μM tyrosine or 193 μM to 25 mM phenylalanine) is 0.173 s⁻¹. Besides, the TAL/PAL in data set [1] (ratio of Kcat/Km for Tyr over Phe) is 125.

B1: Flavobacterium johnsoniae FjXAL tyrosine ammonia lyase (Protein GI 146298870), SEQ ID NO: 1, His-tagged (N-terminal tag SEQ ID NO: 11) (Flavobacterium … (protein)
chain: MNTINEYLSLEEFEAIIFGNQKVTISDVVVNRVNESFNFLKEFSGNKVIYGVNTGFGPMAQYRIKESDQIQLQYNLIRSHSSGTGKPLSPVCAKAAILARLNTLSLGNSGVHPSVINLMSELINKDITPLIFEHGGVGASGDLVQLSHLALVLIGEGEVFYKGERRPTPEVFEIEGLKPIQVEIREGLALINGTSVMTGIGVVNVYHAKKLLDWSLKSSCAINELVQAYDDHFSAELNQTKRHKGQQEIALKMRQNLSDSTLIRKREDHLYSGENTEEIFKEKVQEYYSLRCVPQILGPVLETINNVASILEDEFNSANDNPIIDVKNQHVYHGGNFHGDYISLEMDKLKIVITKLTMLAERQLNYLLNSKINELLPPFVNLGTLGFNFGMQGVQFTATSTTAESQMLSNPMYVHSIPNNNDNQDIVSMGTNSAVITSKVIENAFEVLAIEMITIVQAIDYLGQKDKISSVSKKWYDEIRNIIPTFKEDQVMYPFVQKVKDHLINN
Regarding B1, the “Specific production of CA” value in data set [2] (Delft + Tyr (10 mM)), in data set [2] (Delft medium), in data set [2] (FIT + Tyr (10 mM)) and in data set [2] (FIT medium) was 0 ± 0 μM OD600-1 each time. In addition, the “Specific production of pHCA” value in data set [2] (Delft + Tyr (10 mM)) is listed as 120 ± 16 μM OD600-1; in data set [2] (Delft medium) it was 30 ± 3.5 μM OD600-1; in data set [2] (FIT + Tyr (10 mM)), 120 ± 19 μM OD600-1; in data set [2] (FIT medium), 130 ± 16 μM OD600-1; in data set [3] (CDM, 1.7 mM tyrosine, initial pH 6.5) it was 15 μM OD600^−1. Moreover, the “increase in specific production of pHCA over RmXALI, the second-best enzyme” value in data set [3] (CDM, 1.7 mM tyrosine) is recorded as “five-fold increase”. Moreover, the “specific productivity of pHCA” value in data set [3] (tyrosine increased from 1.7 mM to 3.7 mM and/or pH increased from 6.5 to 7.0) is 24 μMD600^−1.
